Results from patent US7625733B2, “Isolation of quiescin-sulfhydryl oxidase from milk” (University of Delaware, priority 2007, dated 2009).
Where two headings read alike, the source gives them in different places.

B1: Milk QSOX1: Flavin-dependent quiescin Q6 sulfhydryl oxidase 1 isolated and purified from bovine milk, amino acid sequence SEQ ID NO:1 (protein, listed as Bos taurus)
chain: SALYSSSDPLTLLRADTVRSTVLGSSSAWAVEFFASWCGHCIAFAPTWKALANDVKDWRPALNLAALDCAEETNSAVCRDFNIPGFPTVRFFKAFSKTGSGTTLSVAGADVQTLRERLIDALESHSDTWPPACPPLEPARLEEITGFFARNNEEYLALIFEKEGSYLGREVTLDLSQHQGIAVRRVLNTERDVVNRFGVTNFPSCYLLSRNGSFSRVPALTESRSFYTTYLRKFSGSTRGAVQTTAAPATTSAVAPTVWKVADRSKIYMADLESALHYILRIEVGKFSVLEGQRLVALKKFMAVLAKYFRGRPLVQNFLHSMNDWLKKQQRKKIPYGFFKNALDSRKEGTVIAEKVNWVGCQGSEPHFRGFPCSLWILFHFLTVQAAQEGVDHPQERAKAQEVLQAIRGYVRFFFGCRECAGHFEQMASGSMHRVGSLNSAVLWFWSSHNKVNARLAGAPSEDPQFPKVQWPPRELCSACHNELRGTPVWDLDNILKFLKTHFSPSNIVLDFPSAGPGPWR
B2: Egg QSOX1: Avian QSOX1 isolated from egg white; data from Hoober et al. 1999 (protein, UniProt Q8JGM4 43-743, looked up)
Sulfhydryl oxidase 1: RSLYSPSDPLELLGADTAERRLLGSPSAWAVEFFASWCGHCIHFAPTWRALAEDVREWRPAVMIAALDCADEANQQVCADFGITGFPTLKFFRAFSKKAEDGIRIAHPTATVADLRRAIITNLEQSGDAWPPACPPLEPASAEEVRSFFHRNTERYLALIFEQSNSFVGREVALDLLQYENVAVRRVLSSEEELVEKFGVTTFPSAYLLLRNGSFSRLPVHAEARSFYTYYLQTLSGVTRGSYRLNVTGSAINETRALQPAQADRSKVYVADLESTVHYTLRVEAGRPAVLAGAQLAALKCYVATLAKYFPGRPSVQTFLQSLDSWLRNWTEPELPRSALKEAVKNKEDASPAAVLPTNVTWVGCRGSEPHFRGYPCGLWTIFHLLTVQAAQGGPDEELPLEVLNTMRCYVKHFFGCQECAQHFEAMAAKSMDQVKSRREAVLWLWSHHNEVNARLAGGDTEDPQFPKLQWPPPDMCPQCHREERGVHTWDEAAVLSFLKEHFSLGNLYLDHAIPIPMAGEEAAASARLSTAGLREKEEEERKEEEEEGEKETEKPHREGETGRPGSSELRRPSIVRRNPRLRALGEDIVDLDSFSEQHFKSKALRAAGRHRRLSKRDTVALHHDAGWERLQVPESREEEEEGGVLRRSPWLRVLGLGFSRLDVSLCIALYFLSSMCLLGMYTFFRLRTRARKGRPGFPVA

Assays:
[1] = Inhibition of sulfhydryl oxidase activity by EDTA; format: biochemical; conditions: purified QSOX1 from milk
[2] = Oxygen electrode assay, oxidation of reduced glutathione by QSOX1; format: biochemical; conditions: substrate GSH, 25° C., 50 mM phosphate buffer, pH 7.5, 1 mM EDTA
Protocol: (§1) Oxygen electrode assays were performed in duplicate at 25° C. as described in K. L. Hoober, et al., J. Biol. Chem. 271: 30510-30516, 1996. Assays were initiated by the addition of 5 mM DTT or reduced glutathione (GSH). All thiol substrates were standardized with DTNB before use. Reduced RNase was prepared, characterized and stored as described in K. L. Hoober, et al., J. Biol. Chem. 271: 30510-30516, 1996. Assays of the oxidation of reduced RNase were performed as described by K. L. Hoober et al., J. Biol. Chem. 274: 22147-22150.

[3] = system: reduced RNase (rRNase); assay: Oxidation of reduced RNase by QSOX1; format: biochemical
Protocol: as §1

[4] = Oxygen electrode assay, oxidation of dithiothreitol by QSOX1; format: biochemical; conditions: substrate DTT, 25° C., 50 mM phosphate buffer, pH 7.5, 1 mM EDTA
Protocol: as §1

[5] = Stimulation of sulfhydryl oxidase activity by added ferrous iron; format: biochemical; conditions: purified QSOX1 from milk
[6] = system: reduced RNase (rRNase); conditions: substrate rRNase, data from Hoober et al. 1999, cited from earlier work
[7] = substrate GSH, data from Hoober et al. 1999, cited from earlier work
[8] = substrate DTT, data from Hoober et al. 1999, cited from earlier work

| Molecule | Is EDTA inhibitory? [1] | Km [2] | kcat ([2]; thiols oxidized per minute) | catalytic efficiency relative to egg white QSOX1 ([3]; oxidation of reduced pancreatic RNase) | Km ([3]; substrate rRNase, 25° C., 50 mM phosphate buffer, pH 7.5, 1 mM EDTA) | kcat ([3]; substrate rRNase, 25° C., 50 mM phosphate buffer, pH 7.5, 1 mM EDTA, thiols oxidized per minute) | Km [4] | kcat ([4]; thiols oxidized per minute) | Is activity stimulated by added Ferrous iron? [5] | Km [6] | kcat ([6]; thiols oxidized per minute) | Km [7] | kcat ([7]; thiols oxidized per minute) | Km [8] | kcat ([8]; thiols oxidized per minute) |
| --- | --- | --- | --- | --- | --- | --- | --- | --- | --- | --- | --- | --- | --- | --- | --- |
| B1 | No | 4900 µM | 29.33 s⁻¹ | two-fold higher | 60 µM | 22.33 s⁻¹ | 86 µM | 31.33 s⁻¹ | No | – | – | – | – | – | – |
| B2 | – | – | – | – | – | – | – | – | – | 115 µM | 20.33 s⁻¹ | 20000 µM | 46.33 s⁻¹ | 150 µM | 34.33 s⁻¹ |
